Experimental data reported in patent US5223256A, “Thrombolytically active non-glycosylated protein” (Boehringer Mannheim GmbH, priority 1989, dated 1993).

Experiments:
[1] = Pharmacokinetics in rabbits (t-PA activity in plasma); type: in vivo, New-Zealand white rabbits; conditions: 200000 IU/kg, i.v. infusion 30 min
Description: The pharmacokinetic properties of K2P were compared to those of Actilyse® in New-Zealand white rabbits. Both fibrinolytic agents were infused for 30 minutes at a dose of 200,000 IU/kg body weight. Plasma samples were taken at defined times before, during and after the infusion. The t-PA activity was measured with a spectrophotometric test according to J. H. Verheijen et al., (Thromb. Haemostas. 48, 266, 1982), modified according to H. Lill (Z. ges. Inn. Med. 42, 478, 1987).
A calculation programme for non-linear regression modified according to H. Y. Huang (Aero-Astronautics-Report 64, Rice University, 1-30, 1969) Was used to calculate the pharmacokinetic parameters. The parameters were calculated individually using a bi-exponential pharmacokinetic model.

jugular vein thrombosis = assay: Thrombolysis in the rabbit jugular vein model; type: in vivo; conditions: 4 h infusion, mean ± SEM
Description: (§1) The jugular vein model established by D. Collen et al., (J. Clin. Invest. 71, 368, 1983) was used to investigate the thrombolytic efficacy. K2P and Actilyse® were each examined at three dose levels. The fibrinolytic agents were infused for 4 hours and afterwards the rate of thrombolysis was determined (Table 2, FIG. 5).

coagulation system [2] = assay: Haemostasis parameters in the rabbit jugular vein model; type: in vivo; conditions: 30 min after end of infusion, mean ± SEM
Description: as §1
(§2) Thrombolysis, level of t-PA plasma activity (at the end of a 4 h
and haemostasis parameters (30 min after the end of the infusion) of
Mean ± SEM; kU = 1000 IU; HaemostasisParameter (% with reference to […]

[3] = system: coronary artery thrombosis; assay: Dog model for coronary artery thrombosis (thrombolysis); type: in vivo; conditions: for Wet weight of the residual thrombus: 2 h; for Wet weight of the residual thrombus / Reperfusion time: mean ± SEM
Excerpt: An experimental model for acute myocardial infarction in animals was chosen as an example in order to examine the thrombolytic effect of K2P from E. coli on arterial thrombi. The dog was chosen as the animal species. The method for the formation of a coronary artery thrombus was a modification of the technique of Romson et al., (Thromb. Res. 17, 841, 1980). In the open thorax of anaesthetized dogs which were artificially respirated, the intimal surface of the ramus branch of the left circumflex coronary artery (LCX) was electrically stimulated (150 μA) and by this means a thrombus was produced. Previously a screw was applied distal to the thrombosis in order to eliminate a reactive hyperaemia by the experimental stenosis. Proximal to the coronary thrombosis the LCX was equipped with an electromagnetic flow measuring head in order to be able to measure the reperfusion.
(§3) In a study to determine the dosage, BM 06.022 with the eukaryotic t-PA (Alteplase, Actilyse®, Dr. Karl Thomae GmbH, Biberach, FRG) in four different doses and with placebo were injected as an initial single intravenous bolus over 1 min into heparinized dogs; 6 animals were injected with each dose. Plasma samples were taken before and at defined times after the injection in order to determine the plasma concentration of the t-PA activity and of fibrinogen, plasminogen and α2 -antiplasmin as well as the number of thrombocytes in whole blood. Fibrinogen was measured coagulometrically according to Clauss (Acta haemat. 17, 237, 1957), plasminogen and α2-antiplasmin were measured spectrophotometrically as described by Collen et al., (J. Clin. Invest. 71, 368, 1983). In addition, the "Simplate bleeding time" was measured on the hind leg of the dogs using a lancet (Simplate® I, Organon Teknika, Eppelheim, FRG) during a venostasis of 40 mm Hg (J. Surg. Res. 27, 244, 1979). The statistical comparison of the measured values after injection with the control value before injection was carried out with the Wilcoxon Test for pair differences.
In order to describe the thrombolytic effect, the number of reperfused animals per dose-group (=reperfusion rate) as well as the time up to the reperfusion (=reperfusion time) was quoted. In addition, the wet weight of the residual thrombus still present 2 h after injection was measured and the number of animals with a re-occlusion after reperfusion (=re-occlusionrate) was determined. With the aid of a semi-logarithmic regression analysis of the dose-effect (reperfusion rates) relationships, the effective dose for a 50% reperfusion rate (=ED50) was determined for each substance. The statistical comparison of the weights of the residual thrombi was carried out using the Wilcoxon-Mann-Whitney Test for unconnected random samples.

[4] = Pharmacokinetics in the dog (t-PA activity in plasma); type: in vivo; conditions: 200000 IU/kg, i.v. bolus, mean ± standard deviation
Description: as §3
The plasma concentration of the t-PA activity was measured with a spectrophotometric test according to Verheijen et al., (Thromb. Haemost. 48, 266, 1982) modified according to Lill (Z. gesamte Inn. Med. 42, 478, 1987). A calculation programme for non-linear regression modified according to H. Y. Huang (Aero-Astronautics-Report 64, Rice University, USA, 1-30, 1969) was used to calculate the pharmacokinetic parameters. The parameters were calculated individually using a bi-exponential pharmacokinetic model after subtraction of the endogenous basal level of t-PA activity from the subsequent measured values.

coagulation system [5] = assay: Coagulation parameters and number of thrombocytes in the dog; type: in vivo; conditions: for Fibrinogen (% of initial value) / Number of platelets (% of initial value) / Plasminogen (% of initial value) / α2-Antiplasmin (% of initial value): 2 h after i.v. bolus, mean ± SEM
Description: as §3

bleeding time = assay: Simplate bleeding time in the dog; type: in vivo; conditions: i.v. bolus
Description: as §3

[6] = Plasma t-PA activity at the end of infusion in the rabbit jugular vein model; type: in vivo; conditions: end of 4 h infusion, mean ± SEM
Description: as §1, §2

[7] = background; cited from earlier work
plasminogen = conditions: background; cited from earlier work
[8] = background; cited from earlier work; remark: listed apart in the source

Actilyse®: eukaryotic t-PA (Alteplase, Actilyse®, Dr. Karl Thomae GmbH, Biberach, FRG)
Cinf (plasma concentration of t-PA activity at end of infusion) [1]: 326,6 IU/ml
Cltot (total plasma clearance) [1]: 22.2 mL/min/kg
Vc (volume of distribution of the central compartment) [1]: 73.7 mL/kg
t1/2α [1]: 2,1 min
t1/2β [1]: 10,9 min
Cltot (total plasma clearance) ([1]; listed as Actilyse ®): 22,2 ml/min/kg
Vc (volume of distribution of the central compartment) ([1]; listed as Actilyse ®): 73,7 ml/kg
Thrombolysis (jugular vein thrombosis; 400 kU/kg): 46 ± 3%
Thrombolysis (jugular vein thrombosis; 800 kU/kg): 64 ± 6%
Fibrinogen (% of base line) (coagulation system [2]; 400 kU/kg): 90 ± 3%
Plasminogen (% of base line) (coagulation system [2]; 400 kU/kg): 88 ± 4%
α2-Antiplasmin (% of base line) (coagulation system [2]; 400 kU/kg): 87 ± 3%
Fibrinogen (% of base line) (coagulation system [2]; 800 kU/kg): 77 ± 6%
Plasminogen (% of base line) (coagulation system [2]; 800 kU/kg): 77 ± 4%
α2-Antiplasmin (% of base line) (coagulation system [2]; 800 kU/kg): 74 ± 6%
Re-occlusion rate ([3]; 1 130 000 IU/kg, i.v. bolus): 4/4
Reperfusion rate ([3]; 1 130 000 IU/kg, i.v. bolus): 4/6
Wet weight of the residual thrombus ([3]; 1 130 000 IU/kg, i.v. bolus): 4,4 ± 0,5 mg
Reperfusion time ([3]; 1 130 000 IU/kg, i.v. bolus): 14 ± 3 min
Re-occlusion rate ([3]; 1 600 000 IU/kg, i.v. bolus): 4/6
Reperfusion rate ([3]; 1 600 000 IU/kg, i.v. bolus): 6/6
Wet weight of the residual thrombus ([3]; 1 600 000 IU/kg, i.v. bolus): 2,2 ± 0,7 mg
Reperfusion time ([3]; 1 600 000 IU/kg, i.v. bolus): 28 ± 11 min
Reperfusion rate ([3]; 200 000 IU/kg, i.v. bolus): 0/6
Wet weight of the residual thrombus ([3]; 200 000 IU/kg, i.v. bolus): 8,8 ± 1,3 mg
Re-occlusion rate ([3]; 800 000 IU/kg, i.v. bolus): 1/2
Reperfusion rate ([3]; 800 000 IU/kg, i.v. bolus): 2/6
Wet weight of the residual thrombus ([3]; 800 000 IU/kg, i.v. bolus): 5,5 ± 0,4 mg
Reperfusion time ([3]; 800 000 IU/kg, i.v. bolus): 35 ± 38 min
Reperfusion rate ([3]; 1,600 kU/kg body weight, i.v.): 100%
re-occlusion after reperfusion ([3]; i.v. bolus): Most of the dogs treated with K2P or Actilyse® re-occluded after the reperfusion
reperfusion time, average over all animals ([3]; i.v. bolus, all doses): 24.2 ± 6.2 min
weight of the residual thrombus compared to placebo ([3]; increasing doses, i.v. bolus): statistically significant reduction in the weight of the residual thrombus
Cinj. [4]: 1674 IU/ml
T1/2α [4]: 1.6 ± 0.2 min
T1/2β [4]: 14,6 min
Vc (volume of distribution of the central compartment) [4]: 106,1 ml/kg
T1/2α ([4]; listed as Actilyse ®): 1,6 min
Fibrinogen (% of initial value) (coagulation system [5]; 1 130 000 IU/kg): 16 ± 13%
Number of platelets (% of initial value) (coagulation system [5]; 1 130 000 IU/kg): 110 ± 10%
Plasminogen (% of initial value) (coagulation system [5]; 1 130 000 IU/kg): 59 ± 6%
α2-Antiplasmin (% of initial value) (coagulation system [5]; 1 130 000 IU/kg): 45 ± 6%
Fibrinogen (% of initial value) (coagulation system [5]; 1 600 000 IU/kg): 3±0%
Number of platelets (% of initial value) (coagulation system [5]; 1 600 000 IU/kg): 119 ± 10%
Plasminogen (% of initial value) (coagulation system [5]; 1 600 000 IU/kg): 46 ± 2%
α2-Antiplasmin (% of initial value) (coagulation system [5]; 1 600 000 IU/kg): 19 ± 11%
Fibrinogen (% of initial value) (coagulation system [5]; 1 600 000 IU/kg, listed as Actilyse ®): 3 ± 0%
Fibrinogen (% of initial value) (coagulation system [5]; 200 000 IU/kg): 97 ± 3%
Number of platelets (% of initial value) (coagulation system [5]; 200 000 IU/kg): 109 ± 4%
Plasminogen (% of initial value) (coagulation system [5]; 200 000 IU/kg): 90 ± 3%
α2-Antiplasmin (% of initial value) (coagulation system [5]; 200 000 IU/kg): 86 ± 4%
Fibrinogen (% of initial value) (coagulation system [5]; 800 000 IU/kg): 86 ± 4%
Number of platelets (% of initial value) (coagulation system [5]; 800 000 IU/kg): 104 ± 6%
Plasminogen (% of initial value) (coagulation system [5]; 800 000 IU/kg): 87 ± 3%
α2-Antiplasmin (% of initial value) (coagulation system [5]; 800 000 IU/kg): 64 ± 5%
concentration of platelets (coagulation system [5]; 2 h after injection, dog): virtually uninfluenced
lowering of residual contents of plasminogen and α2-antiplasmin (coagulation system [5]; 2 h after injection, dog): more pronounced with Actilyse® than with K2P
residual content of fibrinogen at the ED50 for thrombolytic effect (coagulation system [5]; equipotent doses, semi-logarithmic regression, dog): 38.6%
bleeding time compared with control value before injection (bleeding time): increased the bleeding time which was statistically significant at doses of 1130 and 1600 kU/kg body weight
Plasma t-PA activity ([6]; 400 kU/kg): 47 ± 9 IU/ml
Plasma t-PA activity ([6]; 800 kU/kg): 107 ± 27 IU/ml

natural t-PA: tissue-type plasminogen activator t-PA
clearance rate [7]: rapid decrease in its plasma concentration (clearance)
increase of enzymatic activity in presence of fibrin or fibrinogen cleavage products (plasminogen): more than ten-fold
side effects at high therapeutic doses [8]: side effects such as for example bleeding
